This is an account of results in article PMC9063846 (Acta Crystallographica. Section D, Structural Biology, 2022).

This series concerns the molecule itself. In words: SEC-MALS; SEC-MALLS; Superdex 200 Increase 10/300 GL; 100 µl injected at 2 mg/ml; 20 mM HEPES, 200 mM NaCl pH 7.4; room temperature (20 ± 2 °C). (In general: In gel filtration, larger molecules generally elute earlier.)

B1: Phocaeicola vulgatus sialic acid 9-O-acetylesterase (PvSAE), His6-tagged (enzyme)
chain: ERKYSTFYEQRATLFEELPVTSKDIIFLGNSITNGCEWAELFQNKNVKNRGISGDICMGVYDRLDPIVKGKPAKIFLLIGINDVSRGTSADKIISEISMIVRKIKQESPKTKLYLQSVLPVNDCYGMFNGHTSRWQVVKQINDLLEPLAVKEGVAYIDLYSHFVEKETGKMNPVYTNDGLHLLGKGYLLWRDIVKPYVDQK
notes: Sialic acid 9-O-acetylesterase PvSAE (BVU4141) of Phocaeicola vulgatus, GenBank ABR41743.1, without its signal peptide; the text says that the signal peptide is predicted to be cut between residues 19 and 20; Homodimer by SEC-MALLS and in both crystal forms; also called His6-PvSAE; P. vulgatus 9-O-acetylsialic acid esterase
For orientation: stoichiometry N means the number of molecules, sites or subunits per partner or assembly. For B1, the “stoichiometry N” value came out at 2.
